Assay [1] concerns the target GST-tagged ChlaDUB1_(130–401) (C345A) (Chlamydia trachomatis L2) (UniProt B0B9A0). The assay can be described thus: BLI. In general terms: In BLI a coated tip is dipped into the sample, and binding shifts an interference pattern.
For assay [2], the target named is GST-tagged ChlaDUB2_(58–339) (C282A) (Chlamydia trachomatis L2) (UniProt B0B999). Nature of the assay: BLI.
Assay [3] concerns the target ubiquitin aminomethylcoumarin (UniProt P0CG48).

The Kd is the concentration at which binding is half-saturated. Low values mean a tighter complex, high ones a looser complex. On to “Lys63-linked diubiquitin (from UniProt P0CG48 1-76) (complex)”, for which the Kd was 117 µM in assay [1] and 88.9 µM in assay [2].
In assay [3], “ChlaDUB2_(58–339) W92A (from UniProt B0B999 58-339) (domain or fragment)” showed an attenuation of Ub-AMC hydrolysis activity against wild type ChlaDUB2(58-339) of 50%.

The record behind these values is paper PMC7700883.
